Patent US20260085122A1

Molecular target: native B7H3 on cells (UniProt Q5ZPR3)
Assay: flow cytometry on cells with native B7H3 (taken as H358), anti-His-tag iFluor 488 detection

Chain of native B7H3 on cells (Q5ZPR3 29-534): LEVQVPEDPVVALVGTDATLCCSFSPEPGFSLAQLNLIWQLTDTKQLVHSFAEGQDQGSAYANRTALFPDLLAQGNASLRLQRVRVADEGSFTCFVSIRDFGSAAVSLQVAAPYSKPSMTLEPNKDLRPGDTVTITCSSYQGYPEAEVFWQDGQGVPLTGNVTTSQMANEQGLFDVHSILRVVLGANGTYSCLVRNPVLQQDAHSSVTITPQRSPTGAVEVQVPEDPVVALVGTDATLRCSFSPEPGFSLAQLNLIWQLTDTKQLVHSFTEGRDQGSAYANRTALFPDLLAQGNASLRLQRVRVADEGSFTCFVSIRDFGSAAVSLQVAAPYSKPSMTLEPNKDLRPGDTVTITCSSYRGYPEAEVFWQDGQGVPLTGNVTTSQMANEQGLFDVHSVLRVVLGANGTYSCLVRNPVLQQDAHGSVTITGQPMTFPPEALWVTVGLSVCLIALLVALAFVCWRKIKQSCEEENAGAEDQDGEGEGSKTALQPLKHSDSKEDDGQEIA

Row | EC50 [nM] | MFI | Binder
1 | 6.29 | 496000 | VHH1_C001 (VHH) VHH: EVQLVESGGGLVQPGGSLRLSCAASPRTFQTYFMGWFRQAPGKELEWVSVINWSGGTSYYKDSVKGRFTISRDNSKNTLYLQMNSLRAEDTAVYYCAAKGSGTYDREGEYDYWGQGTLVTVSS
2 | 77 | 539000 | VHH1_C002 (VHH) VHH: EVQLLESGGGLVQPGGSLRLSCAASGFTFSDYHMSWVRQAPGKGLEWVSGILNTGLSPTYAATVTGRFTISRDNSKNTLYLQMNSLRAEDTAVYYCAQGYYRATPSQANRGQGTLVTVSS
